System: MS2 coat protein
Assay: apparent KD of MS2 coat protein; higher = weaker reporter binding
Settings: Eterna round: R107
How it was run: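 Apparent KD stands for the median, per design, of fits to normalised cluster binding curves. The curves came from titrating on-chip-transcribed RNA switches on Illumina sequencing clusters with SNAP-549-labelled MS2 coat protein, twofold from 0.7 or 1.5 nM to 3 µM. Buffer was 100 mM Tris-HCl pH 7.5, 80 mM KCl, 4 mM MgCl2, without or with constant ligand.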

[1] = input ligand: theophylline 20 uM
[2] = input ligand: tryptophan 2.4 mM
[3] = input ligand: theophylline 2 mM

ACAUGAGGAUCACCCAUGUCUGCCUCGGAUACCAGCGGAAGAAAACGCCCUUGGCAGCCGAACAUGAGGAUCACCCAUGUAGGCU [Same State Theophylline A GF30]
apparent KD of MS2 coat protein (input ligand: arginine 13.2 mM): 28.8 nM | apparent KD of MS2 coat protein [1]: 55.1 nM | apparent KD of MS2 coat protein [2]: 45.2 nM

ACAUGAGGAUCACCCAUGUAUGAUGUUCCUCGAGGACCGGUACGGCCGCCACUCGAACGAGUGGCGCGCGCGCGCGCGCGCGCGC [aUa]
apparent KD of MS2 coat protein (input ligand: arginine 13.2 mM): 54.8 nM | apparent KD of MS2 coat protein (input ligand: none): 16.5 nM | apparent KD of MS2 coat protein [1]: 35.1 nM | apparent KD of MS2 coat protein [3]: 22.7 nM | apparent KD of MS2 coat protein [2]: 16.4 nM

UGGUACAUGGCGGCCGCCACUUCACGUAAAAUAAAAACUUGAGGAUCACCCAAGUAAUAAGUUGGGAGGACCGGGUCAUGUACCU
apparent KD of MS2 coat protein (input ligand: arginine 13.2 mM): 18.4 nM | apparent KD of MS2 coat protein [1]: 23.2 nM | apparent KD of MS2 coat protein [3]: 19.2 nM | apparent KD of MS2 coat protein [2]: 14 nM

CACGGACGAGUGGAUCACCCUUGUAAUAACCGAGGACCGGUACGGCCGCCACUCGAAAACCGUGACCUGUACGAAAAGUGCAGGA
apparent KD of MS2 coat protein (input ligand: arginine 13.2 mM): 14.2 nM | apparent KD of MS2 coat protein (input ligand: none): 26.5 nM | apparent KD of MS2 coat protein [1]: 148 nM | apparent KD of MS2 coat protein [3]: 466 nM | apparent KD of MS2 coat protein [2]: 195 nM

UUAGAUAUGACAGAUACCAGCGUGUUGUAGAACAUGAGGAUCACCCAUGUAGUGAUCGAGCGCCCUUGGCAGCUGGUGUGUUUGG [7.S]
apparent KD of MS2 coat protein (input ligand: arginine 13.2 mM): 163 nM | apparent KD of MS2 coat protein [1]: 303 nM | apparent KD of MS2 coat protein [2]: 319 nM

AAUGGUCGUACUGGAAUGGUGAUCCUCAAACGAGGACCGGUACGGCCGCCACUCGAUAACAUGAGGAUCACCCAUGUAAUAAUAA [|T'-M'-Trp-Ms2|_Design13b]
apparent KD of MS2 coat protein (input ligand: arginine 13.2 mM): 26 nM | apparent KD of MS2 coat protein [1]: 67.4 nM | apparent KD of MS2 coat protein [3]: 55.2 nM

GAUUACAUGAGGAUCACCCAUGUAACUGAAGGAGCGGUGAUAAAGCCAGGUAGGUCGCAGAACGACAUGUGGUUCAUCCAUGUAA [#16 Exclusion - Arginine A]
apparent KD of MS2 coat protein (input ligand: arginine 13.2 mM): 33.7 nM | apparent KD of MS2 coat protein (input ligand: none): 36.8 nM | apparent KD of MS2 coat protein [1]: 43.9 nM | apparent KD of MS2 coat protein [3]: 48 nM | apparent KD of MS2 coat protein [2]: 30.3 nM

UCGGGCAGAGCGGCCGCCACUGUAUGGCAUGCGGAUGAAGGAACAUGAGGAUCACCCAUGUAGAUUAGGACCGGGCUUGCGGAGA [p''pmullin]
apparent KD of MS2 coat protein (input ligand: arginine 13.2 mM): 29.1 nM | apparent KD of MS2 coat protein (input ligand: none): 19.8 nM | apparent KD of MS2 coat protein [1]: 22.9 nM | apparent KD of MS2 coat protein [3]: 17.7 nM | apparent KD of MS2 coat protein [2]: 20 nM

GCAUCCUAGUCGGCCGCCACUGGUACGAAUACCUUCACCCGUGUGCACAUGAGGAUCACCCAUGUCAGGACCGGGACUAGGAUGC [SSTryp B #23]
apparent KD of MS2 coat protein (input ligand: arginine 13.2 mM): 9.58 nM | apparent KD of MS2 coat protein (input ligand: none): 9.22 nM | apparent KD of MS2 coat protein [1]: 13.8 nM | apparent KD of MS2 coat protein [3]: 9.91 nM | apparent KD of MS2 coat protein [2]: 9.61 nM

AAUAAUAAGGCGGCCGCCACUAAACAUGAGGAUCACCCAUGUCUCGCGGGCUUGCGUUGGGAAAGUAGGACCGGGCCAAUAAUAA [Exclusion - Tryptophan B (Freestyle 8)]
apparent KD of MS2 coat protein (input ligand: arginine 13.2 mM): 16 nM | apparent KD of MS2 coat protein (input ligand: none): 15.7 nM | apparent KD of MS2 coat protein [1]: 20.6 nM | apparent KD of MS2 coat protein [3]: 14.7 nM | apparent KD of MS2 coat protein [2]: 14.4 nM

AGUUCCAGGUCGGCCGCCACUGGCAUGGCCGGUCCUCGGACUUACAUGAGGAUCACCCAUGUGAACAGGACCGGGACCGCAUGGG [Exclusion Tryptophan B GF 24]
apparent KD of MS2 coat protein (input ligand: arginine 13.2 mM): 26.1 nM | apparent KD of MS2 coat protein [1]: 46.1 nM | apparent KD of MS2 coat protein [3]: 57.2 nM

UUCGUUGGCGAUCUGGGUUUACCAGAUCGGCGAGGACCGGUACGGCCGCCACUCGUGUUUUCUUUACAUGAGGAUCACCCAUGUU [SSTA #3]
apparent KD of MS2 coat protein (input ligand: arginine 13.2 mM): 16.9 nM | apparent KD of MS2 coat protein [1]: 25.3 nM | apparent KD of MS2 coat protein [3]: 25.5 nM

ACAUUUAACUGAAGGAGCGUGAUAAACAUGAGGAUCACCCAUGUACCAAAGAUUUUCAGAUCACAGGUAGGUCGCAGACUAAUGA [JR_ExcArginiB_Sub015]
apparent KD of MS2 coat protein (input ligand: arginine 13.2 mM): 12.8 nM | apparent KD of MS2 coat protein (input ligand: none): 11.7 nM | apparent KD of MS2 coat protein [1]: 16.7 nM | apparent KD of MS2 coat protein [3]: 12.6 nM | apparent KD of MS2 coat protein [2]: 13.3 nM

UGAGAGGGCAGAAGGAGCGACAUGAGGAUCACCCAUGUCUCCCGUUAUGGGAGUUCUUUAGGUCAGGUAGGUCGCUGGCCUCUCA [#1 Exclusion - Arginine B Attempt #9 (Inspired by Omei)]
apparent KD of MS2 coat protein (input ligand: arginine 13.2 mM): 54 nM | apparent KD of MS2 coat protein (input ligand: none): 117 nM | apparent KD of MS2 coat protein [1]: 135 nM | apparent KD of MS2 coat protein [3]: 146 nM | apparent KD of MS2 coat protein [2]: 99.5 nM

AUGCAUAGCACGGCCGCCACUCAAAUUAAACAUGAGGAUCACCCAUGUAACAUGGAUAAAAUAAAGAGGACCGGGUGAAAUGCAA [JR_SSTryptoB_Sub010]
apparent KD of MS2 coat protein (input ligand: arginine 13.2 mM): 26 nM | apparent KD of MS2 coat protein [1]: 36.2 nM | apparent KD of MS2 coat protein [3]: 33.7 nM

UGUAUGUGAUUUGAUACCAGACCAGCUGGUGGUACUUGAGGAACACCCAAGUAGGUUUGGGUCCCUUGGCAGCAAAUCGCAUACU [SS Theo B #24 Ms11]
apparent KD of MS2 coat protein (input ligand: arginine 13.2 mM): 110 nM | apparent KD of MS2 coat protein [1]: 160 nM | apparent KD of MS2 coat protein [3]: 29.9 nM | apparent KD of MS2 coat protein [2]: 138 nM

AUAUUAAUCGGAAGGAGCGGUACAUGAGGAUCACCCAUGUGGUAAGCUAGCAGAUCCCGUUACCAGGUAGGUCGCCGAGUUAUGA [XArg-B17]
apparent KD of MS2 coat protein (input ligand: arginine 13.2 mM): 268 nM | apparent KD of MS2 coat protein (input ligand: none): 201 nM | apparent KD of MS2 coat protein [1]: 474 nM | apparent KD of MS2 coat protein [3]: 510 nM | apparent KD of MS2 coat protein [2]: 216 nM

AGUAGACACGCGGCCGCCACUUGAGGAUCACCCAGGUGGUGUGUACUUGAAAACAAGUGCACAUCAAGGACCGGGCGUGUCUACA [Omei Tryp B SS D v2]
apparent KD of MS2 coat protein (input ligand: arginine 13.2 mM): 12.9 nM | apparent KD of MS2 coat protein [1]: 17.1 nM | apparent KD of MS2 coat protein [3]: 13.9 nM | apparent KD of MS2 coat protein [2]: 27.3 nM

CGAAUAUAGGCUACGUGUCAUUGAGGCGAUACCAGAUUAUGCCAGAUCCCUUGGCAGCGCCAAACAUGAGGAUCACCCAUGUUCA [theeternabot_exclusion_MS2_Theo_A_38]
apparent KD of MS2 coat protein (input ligand: arginine 13.2 mM): 23.5 nM | apparent KD of MS2 coat protein [1]: 24.8 nM | apparent KD of MS2 coat protein [2]: 21.5 nM

GCUGUACCAUGAAGGAGCGUCACGGAGUGCGAAUACACAUGAGGAUCACCCAUGUUUUUAUGGCAGGUAGGUCGCAUGGUACAGC [#02 Same State - Arginine B]
apparent KD of MS2 coat protein (input ligand: arginine 13.2 mM): 22.8 nM | apparent KD of MS2 coat protein (input ligand: none): 22.3 nM | apparent KD of MS2 coat protein [1]: 33.3 nM | apparent KD of MS2 coat protein [3]: 28.4 nM | apparent KD of MS2 coat protein [2]: 22.9 nM
